Source: patent US20150158949A1 (MEDLMMUNE, published 2015)

B1: MEDI-546 (antibody, human IgG1, V domains shown)
VH: EVQLVQSGAEVKKPGESLKISCKGSGYIFTNYWIAWVRQMPGKCLESMGIIYPGDSDIRYSPSFQGQVTISADKSITTAYLQWSSLKASDTAMYYCARHDIEGFDYWGRGTLVTVSS
VL: EIVLTQSPGTLSLSPGERATLSCRASQSVSSSFFAWYQQKPGQAPRLLIYGASSRATGIPDRLSGSGSGTDFTLTITRLEPEDFAVYYCQQYDSSAITFGQGTRLEIK
B2: MEDI-546-Alexa647 (antibody, human IgG1, V domains shown)
VH: B1 VH
VL: B1 VL
modifications: Alexa647 dye conjugated to the antibody (sites and chain not stated)

Columns and labels:
[1] = molecular target: T1, IFNAR1 (Interferon alpha receptor-1) (human, UniProt P17181 28-557); test: cell-based or functional assay
T1 sequence (looked up): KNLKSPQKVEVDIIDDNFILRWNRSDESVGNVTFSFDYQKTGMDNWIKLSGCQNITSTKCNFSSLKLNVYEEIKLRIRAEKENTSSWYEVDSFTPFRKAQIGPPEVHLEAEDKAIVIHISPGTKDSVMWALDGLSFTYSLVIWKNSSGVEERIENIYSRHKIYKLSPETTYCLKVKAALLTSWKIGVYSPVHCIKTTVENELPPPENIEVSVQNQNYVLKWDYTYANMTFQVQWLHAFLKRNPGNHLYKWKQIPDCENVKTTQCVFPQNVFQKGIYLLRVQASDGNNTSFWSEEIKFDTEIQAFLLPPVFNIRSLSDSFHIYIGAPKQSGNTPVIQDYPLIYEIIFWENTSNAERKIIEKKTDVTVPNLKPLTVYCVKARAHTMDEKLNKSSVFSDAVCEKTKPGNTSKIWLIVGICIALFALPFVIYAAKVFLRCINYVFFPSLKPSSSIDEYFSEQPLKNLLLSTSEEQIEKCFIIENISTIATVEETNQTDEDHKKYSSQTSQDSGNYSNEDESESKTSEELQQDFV

[2] = molecular target: T1, IFNAR1 (Interferon alpha receptor-1); test: live-cell confocal fluorescence imaging of IFNAR1-expressing THP-1 cells, 1 µg/mL, stained on ice, FcR blocked
Method: Reaction mixtures were purified from unincorporated fluorescent molecules using size-exclusion mini-columns provided in the kit. IFNAR1-expressing THP-1 cells were maintained in suspension using RPMI growth medium containing 10% FBS, and seeded in a fresh growth medium at 2×10^5 cells/mL overnight prior to the experiments. On the day of experiments, THP-1 cells were washed and resuspended to a concentration of 3×10⁶ cells/mL.
Cell suspensions were first stained for 10-20 min with cytosol dye, CFSE, from Invitrogen (Life Technologies Corp, Carlsbad, Calif.) in a CO₂ incubator at 37° C. Excess CFSE was removed by two washes with 1×PBS. […] Following the removal of unincorporated antibodies by centrifugation, cells were resuspended to initial volumes, and dispensed into the wells of 384-well imaging plates.

Row | Binder | IC50 (nM), bootstrap median [1] [nM] | IC50 (nM): Potency, MEDI-546 concentration corresponding to half-maximum inhibition of GS production [1] [nM] | binding result [2]
1 | B1 | 0.772 | 0.978 | 
2 | B2 |  |  | binds
